In publication PMC5551644 (Biochemistry, 2016):
Like-named read-outs stand apart in the source and are kept apart here.

Tests used:
Test in all cases: SPR
[1] = target: T1, TGF-β type II receptor extracellular domain (UniProt P37173 23-166)
[2] = target: T1, TGF-β type II receptor extracellular …; remark: listed apart in the source
[3] = target: T1, TGF-β type II receptor extracellular …; remark: listed apart in the source

T1 sequence (P37173 23-166): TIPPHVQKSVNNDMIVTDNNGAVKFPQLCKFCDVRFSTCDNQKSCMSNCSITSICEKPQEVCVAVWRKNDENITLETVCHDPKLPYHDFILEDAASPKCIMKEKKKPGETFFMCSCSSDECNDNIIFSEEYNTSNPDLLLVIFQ

- Kd [1]: 4.6 ± 0.7 µM
- Kd [2]: 9.4 ± 2.2 µM
- Kd [3]: 2.9 ± 1.1 µM
B1: Transforming growth factor β2 (TGF-β2), recombinant human (ligand, UniProt P61812 303-414, looked up)
chain: ALDAAYCFRNVQDNCCLRPLYIDFKRDLGWKWIHEPKGYNANFCAGACPYLWSSDTQHSRVLSLYNTINPEASASPCCVSQDLEPLTILYYIGKTPKIEQLSNMIVKSCKCS
modifications: biotinylated for SPR (EZ-Link Amine-PEG3-biotin with EDC/Sulfo-NHS; for the experiments of Table S1 sulfo-NHS-LC-LC-Biotin)
